Test: yeast display, Sf9 membrane polyspecificity reagent, FACS + sequencing; frameworks hold sequencing errors
In short: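 In a synthetic yeast display library (Saccharomyces cerevisiae BJ5465), nanobody expression was induced with galactose for 36–48 hours. FACS gates were set low and high (top ~1%) using anti-HA fluorescence for expression and streptavidin fluorescence for binding of the Sf9 membrane reagent. Each polyreactivity label is drawn from the gate of origin.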

Row | Sequence | polyreactivity (PSR sort gate)
1 | QVQLVESGGGLVQAGGSLRLSCAASGFTFTYYAMGSYRQAPGKERELVAAITSRGGTTYYADSVKGRFTISRDNAKNTVYLQMNSLKPEDTAVYYCNARHSYWTGRRVTDDYDYWGQGTQVTVSS | high polyreactivity
2 | QVQLVESGGGLVQAGGSLRLSCAASGFTFTYYAMGWYRQAPGKERELVAAITRRGGRTYYADSVKGRFTISRDNAKNTVYLQMNSLKPEDTAVYYCNADEYGGSTGRKGRYNYWGQGTQVTVSS | low polyreactivity
3 | QVQLVESGGGLVQAGGSLRLSCAASGFTFTYYAMGWYRQAPGKERELVAVISSAGSTYNADSVKGRFTISRDNAKNTVYLQMNSLKPEDTAVYYCNAVGRYYSSGRYGHWGQGTQVTVSS | high polyreactivity
4 | QVQLVESGGGLVQAGGSLRLSCAASGFTFTYYDMGWYRQAPGKERELDAAISWSGDYTYYADSVKGRFTISRDNAKNTVYLQMNSLKPEDTAVYYCAALWDVRGYWSSGGYYWGQGTQVTVSS | high polyreactivity
5 | QVQLVESGGGLVQAGGSLRLSCAASGFTFTYYDMGWYRQAPGKERELVAAISRSGGRTYYADSVKGRFTISRDNAKNTVYLQMNSLKPEDTAVYYCAARRVDTRVHVRYRYYYWGQGTQVTVSS | high polyreactivity
6 | QVQLVESGGGLVQAGGSLRLSCAASGFTFTYYVMGWYRQAPGKERELVAAITSSGGRTYYADSVKGRFTISRDNAKNTVYLQMNSLKPEDTAVYYCNKGPLPGYDYWGQGTQVTVSS | high polyreactivity
7 | QVQLVESGGGLVQAGGSLRLSCAASGFTFVAYAMGWYRQAPGKERELVAAISKSGGSTYYADSVKGRFTISRDNAKNSVYLQMNRLKPEDTAVYYCAARYYAYRSDYWGQGTQVTVSS | high polyreactivity
8 | QVQLVESGGGLVQAGGSLRLSCAASGFTFVDNAMGWYRQAPGKERELVAVIDFNDGTTYYADSVKGRFTISRDNAKNTVYLLMNSLKPEDTEVYYCNVDSSLILWVEYDYWGQGTQVTVSS | low polyreactivity
9 | QVQLVESGGGLVQAGGSLRLSCAASGFTFVFYAMGWYRQAPGKERELVAAINSGGSTYYADSVKGRFTISRDIAKNTDYLQMNSLKPEDTAVYYCAKGSYGPSAGYGRRYYYWGQGTQVTVSS | high polyreactivity
10 | QVQLVESGGGLVQAGGSLRLSCAASGFTFVIHDMGWYRQAPGKERELVADITSGGDTYYADSVKGRFTISRDNAKNTVYLQMNSQKPEDTAVYYCAADIYPDWIYLLYGYWGQGTQGTVSS | low polyreactivity
11 | QVQLVESGGGLVQAGGSLRLSCAASGFTFVINYMGWYRQAPGKERELVADITSGGDTYYADSVKGRFTISRDNAKNTVYLQMNSLNPEDTAVYYCAADIYPDWIYLLYGYWGQVTQVTVSS | low polyreactivity
12 | QVQLVESGGGLVQAGGSLRLSCAASGFTFVNYAMGWYRQAPGKERELVAAISSGGRTYYADSVKGRFTISRDNAKNTVYLQMNSLKPEDTAVYYCAARYKGRAIWMDYWGQGTQVTVSS | high polyreactivity
13 | QVQLVESGGGLVQAGGSLRLSCAASGFTFVNYARGWYRQAPGKERELVAAIRRSGSRTYYADSVKGRFTISRDNAKNTVYLQMHSLKPEDTAVYYCAAVWYRLYGYWGQGTQVTVSS | low polyreactivity
14 | QVQLVESGGGLVQAGGSLRLSCAASGFTFVPYARGWYRQAPGKDREWVAAISRRGGSTYYADSVKGRFTISRDYAKNTVYLQMNSLKPEDTAVYYCAKDGPGGGTRIYDYWGQGTQVTVSS | high polyreactivity
15 | QVQLVESGGGLVQAGGSLRLSCAASGFTFVQYAMGWYRQAPGKERELVATISKSGGITYYADSVKGRFTISRDNAKNTVYLQMNSLKPEDNAVYYCAAAWYYSSRGFHATWGHDYWGQGTQVTVSS | low polyreactivity
16 | QVQLVESGGGLVQAGGSLRLSCAASGFTFVRYAMGWYRQAPGKERELVAAISRGGGRTSYADSVKGRFTISRDNAKNTVYLQMNSLKPEDTAVYYCATGTYAAAQGTRYYYLGQGTQVTVSS | high polyreactivity
17 | QVQLVESGGGLVQAGGSLRLSCAASGFTFVRYAMGWYTQAPGKERELDAAITRGGGSTYYADSVKGRFTISRDYAKNTVYLQMNSLKPEDTAVYYCAKGPGRPVSYEIPYKYNYWGQGTHVTVSS | high polyreactivity
18 | QVQLVESGGGLVQAGGSLRLSCAASGFTFVRYTMGWYRQAPGKERELVAAITSGGSTTYADSVKGRFTISRDNAKNTVYLQMNSLKPEDTAVYYCNAVFYLQYETGRELDYWGQGTQVTVSS | high polyreactivity
19 | QVQLVESGGGLVQAGGSLRLSCAASGFTFVSNAMGWYRQAPGKEREMVADITSDGSTNYADSVKGRFTISRDNAKNTVSLQMNSLKPEDTAVYYCNADASYGFWSLLHYDYWGQATQVTVSS | low polyreactivity
20 | QVQLVESGGGLVQAGGSLRLSCAASGFTFVSYTMGWYRQAPGKERELVAVITKRGGSTYYADSVKGRFTISRDNAKNTVYLQLNCLKPEDTAVYYCNAVQAYKSPSLPLAGGNYWGQGTQVTVSS | high polyreactivity
21 | QVQLVESGGGLVQAGGSLRLSCAASGFTFVYNAMGWYRQAPGKERELVAAITSGGNTYYADSVKGRFTISRDNAKNTVYLQMNSLKPEDTAVYYCAKRGYGRYYAYDYWGQGTQVTVSS | high polyreactivity
22 | QVQLVESGGGLVQAGGSLRLSCAASGFTFVYYDMGWYRQAPGKERELVAAISRSGGSTYYADSVKGRFTISRDNAQNTVYLQMNSLKPEDTAVYYCAAGKNYGSRLSYEYWGQGTQVTVSS | high polyreactivity

Row | Sequence | polyreactivity (PSR sort gate)
23 | QVQLVESGGGLVQAGGSLRLSCAASGFTFVYYVMGWYRQAPGKERELVAAITRRGGNTYYADSVKGRFTISRDNAKNTVYLQMNSLKPEDTAVYYCNAVLRYGHGPYQKGDYWGQGTQVTVSS | high polyreactivity
24 | QVQLVESGGGLVQAGGSLRLSCAASGFTFWHYAMGWYRQAPGKERELVAAITWDGGSTYYADSVKGRFTISRDNAKNTFYLQMQSLKPEDNAVYYCAKLFGGTYYEYDYWGQGTQVTVSS | low polyreactivity
25 | QVQLVESGGGLVQAGGSLRLSCAASGFTFWLYAMGWYRQATGKERELVAAIDWDGGTYYADSVKGRFTISRDNAKNTVYLQMNSLKPEDTAVYYCAARYRYYYTRYDYWGQGTQVTVSS | high polyreactivity
26 | QVQLVESGGGLVQAGGSLRLSCAASGFTFWRNAMGWYRQAPGKERELVAAISWRGGSTYYADSVKGRFTISRDNAKNTVYLQMNSLKPEDTAVYYCNALHWQSKELDYYWGQGTQVTVSS | high polyreactivity
27 | QVQLVESGGGLVQAGGSLRLSCAASGFTFWRYAMGWYIQAPGKERELVAAISYSGGRTYYADSVKGRFTISRDNAKNTVYLQMNSLKPEDTAVYYCAASRVTYGGPYRDDYDYWGQGTQVTVSS | high polyreactivity
28 | QVQLVESGGGLVQAGGSLRLSCAASGFTFWRYAMGWYREAPGKERELVAAITGLGRTNYADSVKGRFTISRDNAKNTVYLQMNSLKPEDTADYYCNVVRVYRYDYWGQGTQVTVSS | high polyreactivity
29 | QVQLVESGGGLVQAGGSLRLSCAASGFTFWRYAMGWYRQAPGKEREFVAVISISSGTTYADSVKGRFTITRDNAKNTVYLQMNSLKPEDTAVYYCAAAIGVYYIEYRYLGTVEYWGQGTQVTVSS | low polyreactivity
30 | QVQLVESGGGLVQAGGSLRLSCAASGFTFWRYAMGWYRQAPGKERELVAAISRTGGRTYYADSVKGRFTISRDNAKNTVYLQMNSLKPEDTAVYYCAADWLYDYGEYYYWGQGTQVTVSS | high polyreactivity
31 | QVQLVESGGGLVQAGGSLRLSCAASGFTFWRYAMGWYRQAPGKERELVAAITWSGGRTYYADSVKGRFTISRDNAKNTVYLQMNSLKPEDTAVYYCNVDAYGYRPYRYYYWGQGTQVTVSS | high polyreactivity
32 | QVQLVESGGGLVQAGGSLRLSCAASGFTFWTYAMGWYRQAPGKERELVAAIDSGGSTYYADSVKGRFTITRDNAKNTVYLQMNSLKPEDTAVYYCNAGPSVTSGYDYDYWGQGTQVTVSS | low polyreactivity
33 | QVQLVESGGGLVQAGGSLRLSCAASGFTFWYYAMGWYRQAPGKERELVAAISSGSSTNYADSVKGRFTISRDNPKNTVYLQMNSLKPEDTAVDYCAADKYPSSPYVGDVDYWGQGTQVTVSS | high polyreactivity
34 | QVQLVESGGGLVQAGGSLRLSCAASGFTFWYYAMGWYRQAPGKERELVAGIDSGGSTYYADSVKGRFTISRDNAKNTVYFQMNSLKPEETAVYYCAARPDQGLAYSPLPWYNYWGQGTQVTVSS | low polyreactivity
35 | QVQLVESGGGLVQAGGSLRLSCAASGFTFWYYAMGWYRQAPGKERELVASISASGGRTNYADSVKGRFTISRDNAKNTVYLQMNSLKPEDTAVYYCAACRVRYSYGYPYYYWGQGTQVTVSS | high polyreactivity
36 | QVQLVESGGGLVQAGGSLRLSCAASGFTFWYYAMGWYRQAPGKERELVASISRTGGTTYYADSVKGRFTISRDNAKNTVYLQMNSLKPEDTAVYYCNARPKVYYREYDYWGQGTQVTVSS | high polyreactivity
37 | QVQLVESGGGLVQAGGSLRLSCAASGFTFYAYAMGWYRQAPGKERELVAAISGSGGRTYYADSVKGRFTISRDNAKNTVYLQMNSLKPEDTAVYYCAADRPGGSYDYWGQGTQVTVSS | high polyreactivity
38 | QVQLVESGGGLVQAGGSLRLSCAASGFTFYFYAMGWYRQAPGKERDLVAAINSGDSTYYADSVKGRFTISSDNEKNTVYLQMNSLKPEDTAVYYCSAAQFIQLRDYWGQGTQVTVSS | high polyreactivity
39 | QVQLVESGGGLVQAGGSLRLSCAASGFTFYGYAMGWYRQAPGKEREFVADISSRDGSTYYADSVKGRFTISRDNAKNTVYLQMNSLKPEDTAVYYCAADSGQYKWSDYDYWGQGTQVTVSS | low polyreactivity
40 | QVQLVESGGGLVQAGGSLRLSCAASGFTFYGYAMGWYRQAPGKERELVAAISSSGGRTYYADSVKGRFTISRDNSKNTVYLQMNSLKPEDTAVYYCAADYTSRDYYYWGQGTQVTVSS | high polyreactivity
41 | QVQLVESGGGLVQAGGSLRLSCAASGFTFYGYAMGWYRQAPGKERELVADISYRGGSTYYADSVKGRFTISRDNAKNTVYLQMNRLKPEDTAVYYCAARATPTYYAGQREDYNYWGQGTQVTVSS | high polyreactivity
42 | QVQLVESGGGLVQAGGSLRLSCAASGFTFYHNAMGWYRPAPGKERELVAAITWDSGSTYYADSVKGRFTISRDNAKNTAYLQMNSLKPEDPAVYYCAADIASGYYWYDYWGQGTQVTVSS | low polyreactivity
43 | QVQLVESGGGLVQAGGSLRLSCAASGFTFYHNTMGWYRQAPGKEREFVATINFIGGSTYYADSVKGRFTISRDNAKNTVYLQMNSLKPEDTAVYYCNARSRYLYFLRFDYWGQGTQVTVSS | high polyreactivity
